# Results reported in publication PMC8557876.
# Assay: immunofluorescence colocalisation with ER marker PDI (PCC)
# Settings: glycan lost; control: wild-type hACE2, DMSO
substance,measurement,value
human ACE2 (hACE2): N90Q/N322Q/N546Q/N53Q/N103Q,localisation_or_trafficking,changes
